Assay results taken from article PMC3994145.

Tests used:
[1] = biological target: human FcγRIIa/131H on Jurkat cells (human) (UniProt P12318)
[2] = biological target: human FcγRIIIa/158V on Jurkat cells (human)
Sequence of human FcγRIIIa/158V on Jurkat cells (human) (P08637 17-208): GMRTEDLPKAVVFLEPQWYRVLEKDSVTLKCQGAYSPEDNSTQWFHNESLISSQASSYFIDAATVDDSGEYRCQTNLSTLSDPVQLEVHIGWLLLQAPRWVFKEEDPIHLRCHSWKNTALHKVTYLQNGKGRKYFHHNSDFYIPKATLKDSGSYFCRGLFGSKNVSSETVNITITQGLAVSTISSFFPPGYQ

Sequence of UniProt P12318 (P12318 34-317): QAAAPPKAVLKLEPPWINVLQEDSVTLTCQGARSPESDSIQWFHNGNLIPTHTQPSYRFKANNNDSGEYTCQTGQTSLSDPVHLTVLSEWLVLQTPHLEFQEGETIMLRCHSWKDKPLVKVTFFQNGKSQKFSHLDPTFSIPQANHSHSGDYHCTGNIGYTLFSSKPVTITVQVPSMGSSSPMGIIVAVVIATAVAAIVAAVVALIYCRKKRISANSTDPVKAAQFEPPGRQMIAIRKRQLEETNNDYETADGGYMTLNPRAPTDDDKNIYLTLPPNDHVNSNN

EC50 of luciferase activity of Jurkat/FcγRIIa/NFAT-Luc cells co-cultured with Daudi cells and serially diluted mAb [1] | EC50 of luciferase activity of Jurkat/FcγRIIIa/NFAT-Luc cells co-cultured with Daudi cells and serially diluted mAb [2] | Substance
0.057 µg/mL | 0.016 µg/mL | rituximab G236A/S239D/I332E variant (antibody)
 | 0.034 µg/mL | rituximab (wild-type, anti-CD20 mAb, IgG1) (antibody)
